Experimental data from patent US20110076268A1 (CRUCELL HOLLAND B V, published 2011).

Experiments:
[1] = target: F protein of MARM 1129 (RSV A2 escape mutant generated against murine mAb 1129) (Respiratory Syncytial Virus strain A2) (UniProt P03420); assay: cell-based or functional assay
[2] = target: F protein of MARM 151 (RSV A2 escape mutant generated against murine mAb 151) (Respiratory Syncytial Virus strain A2) (UniProt P03420); assay: cell-based or functional assay
[3] = target: F protein of MARM 19 (RSV A2 escape mutant generated against human Fab 19) (Respiratory Syncytial Virus strain A2) (UniProt P03420); assay: cell-based or functional assay
[4] = target: F protein of RSV B-1 (ATCC Cat. No. 1400) (Respiratory Syncytial Virus B, strain B-1) (UniProt O36634); assay: cell-based or functional assay
[5] = target: F protein of RSV B-wash (ATCC Cat. No. VR-1580, strain 18537) (Respiratory Syncytial Virus B, strain 18537) (UniProt P13843); assay: cell-based or functional assay
[6] = target: F protein of the IgG form of 58C5 MARM (N63K, M115K and E295G) (Respiratory Syncytial Virus strain A2) (UniProt P03420); assay: cell-based or functional assay
[7] = target: F protein of the motavizumab MARM (K272E) (Respiratory Syncytial Virus strain A2) (UniProt P03420); assay: cell-based or functional assay
[8] = target: T1, RSV strain A2 F protein (recombinant or native, not specified for Table 19) (Respiratory Syncytial Virus strain A2, UniProt P03420 26-524); assay: ELISA, IgG titrated on captured RSV F protein; EC50 estimated
T1 construct: also called RSV F Protein

Work on IgG form of 58c5 (antibody) yielded an Average Plaque Count, 0.003 ug/ml [1] of 17.7 plaques, an Average Plaque Count, 0.016 ug/ml [1] of 11.7 plaques and an Average Plaque Count, 0.08 ug/ml [1] of 5.7 plaques. For the same molecule, the Average Plaque Count, 0.4 ug/ml [1] was 2.3 plaques, the Average Plaque Count, 2 ug/ml [1] was 0 plaques and the Average Plaque Count, 10 ug/ml [1] was 0 plaques. It also gave a Plaque reduction rate, 0.003 ug/ml [1] of 21%, a Plaque reduction rate, 0.016 ug/ml [1] of 47% and a Plaque reduction rate, 0.08 ug/ml [1] of 74%. For the same molecule, the Plaque reduction rate, 0.4 ug/ml [1] was 90%, the Plaque reduction rate, 2 ug/ml [1] was 100% and the Plaque reduction rate, 10 ug/ml [1] was 100%. It also gave an Average Plaque Count, 0.003 ug/ml [2] of 151 plaques, an Average Plaque Count, 0.016 ug/ml [2] of 128 plaques and an Average Plaque Count, 0.08 ug/ml [2] of 112 plaques. The Average Plaque Count, 0.4 ug/ml [2] was 64.7 plaques, the Average Plaque Count, 2 ug/ml [2] was 15.3 plaques and the Average Plaque Count, 10 ug/ml [2] was 0 plaques. It also gave a Plaque reduction rate, 0.003 ug/ml [2] of 0%, a Plaque reduction rate, 0.016 ug/ml [2] of 15% and a Plaque reduction rate, 0.08 ug/ml [2] of 26%. The Plaque reduction rate, 0.4 ug/ml [2] was 57%, the Plaque reduction rate, 2 ug/ml [2] was 90% and the Plaque reduction rate, 10 ug/ml [2] was 100%. The Average Plaque Count, 0.003 ug/ml [3] was 143 plaques, the Average Plaque Count, 0.016 ug/ml [3] was 135 plaques and the Average Plaque Count, 0.08 ug/ml [3] was 89.3 plaques. The Average Plaque Count, 0.4 ug/ml [3] was 72 plaques, the Average Plaque Count, 2 ug/ml [3] was 16.7 plaques and the Average Plaque Count, 10 ug/ml [3] was 0.7 plaques. It also gave a Plaque reduction rate, 0.003 ug/ml [3] of 8%, a Plaque reduction rate, 0.016 ug/ml [3] of 14% and a Plaque reduction rate, 0.08 ug/ml [3] of 42.7%. It also gave a Plaque reduction rate, 0.4 ug/ml [3] of 53.8%, a Plaque reduction rate, 2 ug/ml [3] of 89% and a Plaque reduction rate, 10 ug/ml [3] of 100%. For the same molecule, the Average Plaque Count, 0.003 ug/ml [4] was 11.7 plaques, the Average Plaque Count, 0.016 ug/ml [4] was 9.3 plaques and the Average Plaque Count, 0.08 ug/ml [4] was 4 plaques. The Average Plaque Count, 0.4 ug/ml [4] was 0.3 plaques, the Average Plaque Count, 2 ug/ml [4] was 0 plaques and the Average Plaque Count, 10 ug/ml [4] was 0 plaques. For the same molecule, the Plaque reduction rate (%), 0.003 ug/ml [4] was 5%, the Plaque reduction rate (%), 0.016 ug/ml [4] was 24% and the Plaque reduction rate (%), 0.08 ug/ml [4] was 67.5%. The Plaque reduction rate (%), 0.4 ug/ml [4] was 97.6%, the Plaque reduction rate (%), 2 ug/ml [4] was 100% and the Plaque reduction rate (%), 10 ug/ml [4] was 100%. The Average Plaque Count, 0.003 ug/ml [5] was 20.7 plaques, the Average Plaque Count, 0.016 ug/ml [5] was 16.3 plaques and the Average Plaque Count, 0.08 ug/ml [5] was 7.7 plaques. For the same molecule, the Average Plaque Count, 0.4 ug/ml [5] was 1.3 plaques, the Average Plaque Count, 2 ug/ml [5] was 0 plaques and the Average Plaque Count, 10 ug/ml [5] was 0 plaques. The Plaque reduction rate (%), 0.003 ug/ml [5] was 21%, the Plaque reduction rate (%), 0.016 ug/ml [5] was 38% and the Plaque reduction rate (%), 0.08 ug/ml [5] was 71%. It also gave a Plaque reduction rate (%), 0.4 ug/ml [5] of 95%, a Plaque reduction rate (%), 2 ug/ml [5] of 100% and a Plaque reduction rate (%), 10 ug/ml [5] of 100%. It also gave an ED50, neutralization of IgG 58C5 MARM [6] of over 66.7 nM, a Plaque reduction rate, IgG 58C5 MARM, 3.2 ng/ml [6] of 0% and a Plaque reduction rate, IgG 58C5 MARM, 16 ng/ml [6] of 0%. For the same molecule, the Plaque reduction rate, IgG 58C5 MARM, 80 ng/ml [6] was 0%, the Plaque reduction rate, IgG 58C5 MARM, 400 ng/ml [6] was 0% and the Plaque reduction rate, IgG 58C5 MARM, 2000 ng/ml [6] was 0%. For the same molecule, the Plaque reduction rate, IgG 58C5 MARM, 10000 ng/ml [6] was 3.3%, the ED50, neutralization of Motavizumab MARM [7] was 0.173 nM and the Plaque reduction rate, Motavizumab MARM, 3.2 ng/ml [7] was 1.5%. The Plaque reduction rate, Motavizumab MARM, 16 ng/ml [7] was 43%, the Plaque reduction rate, Motavizumab MARM, 80 ng/ml [7] was 74.6% and the Plaque reduction rate, Motavizumab MARM, 400 ng/ml [7] was 92%. It also gave a Plaque reduction rate, Motavizumab MARM, 2000 ng/ml [7] of 95.8% and a Plaque reduction rate, Motavizumab MARM, 10000 ng/ml [7] of 97.6%.

B1: Motavizumab (antibody, V domains shown)
VH: QVTLRESGPALVKPTQTLTLTCTFSGFSLSTAGMSVGWIRQPPGKALEWLADIWWDDKKHYNPSLKDRLTISKDTSKNQVVLKVTNMDPADTATYYCARDMIFNFYFDVWGQGTTVTVSS
VL: DIQMTQSPSTLSASVGDRVTITCSASSRVGYMHWYQQKPGKAPKLLIYDTSKLASGVPSRFSGSGSGTEFTLTISSLQPDDFATYYCFQGSGYPFTFGGGTKVEIK
With B1 the EC50 [8] was about 0.027 nM.
